{
  "source": "paper PMC13598120",
  "parents": {"B1": {"name": "Flag-tagged GNL3 (Flag-GNL3), wild type [human] / RAD51, endogenous [human (endogenous in U2OS and HeLa)] (parent)", "chain 1": "MKRPKLKKASKRMTCHKRYKIQKKVREHHRKLRKEAKKRGHKKPRKDPGVPNSAPFKEALLREAELRKQRLEELKQQQKLDRQKELEKKRKLETNPDIKPSNVEPMEKEFGLCKTENKAKSGKQNSKKLYCQELKKVIEASDVVLEVLDARDPLGCRCPQVEEAIVQSGQKKLVLILNKSDLVPKENLESWLNYLKKELPTVVFRASTKPKDKGKITKRVKAKKNAAPFRSEVCFGKEGLWKLLGGFQETCSKAIRVGVIGFPNVGKSSIINSLKQEQMCNVGVSMGLTRSMQVVPLDKQITIIDSPSFIVSPLNSSSALALRSPASIEVVKPMEAASAILSQADARQVVLKYTVPGYRNSLEFFTVLAQRRGMHQKGGIPNVEGAAKLLWSEWTGASLAYYCHPPTSWTPPPYFNESIVVDMKSGFNLEELEKNNAQSIRAIKGPHLANSILFQSSGLTNGIIEEKDIHEELPKRKERKQEEREDDKDSDQETVDEEVDENSSGMFAAEETGEALSEETTAGEQSTRSFILDKIIEEDDAYDFSTDYV", "chain 2": "MAMQMQLEANADTSVEEESFGPQPISRLEQCGINANDVKKLEEAGFHTVEAVAYAPKKELINIKGISEAKADKILAEAAKLVPMGFTTATEFHQRRSEIIQITTGSKELDKLLQGGIETGSITEMFGEFRTGKTQICHTLAVTCQLPIDRGGGEGKAMYIDTEGTFRPERLLAVAERYGLSGSDVLDNVAYARAFNTDHQTQLLYQASAMMVESRYALLIVDSATALYRTDYSGRGELSARQMHLARFLRMLLRLADEFGVAVVITNQVVAQVDGAAMFAADPKKPIGGNIIAHASTTRLYLRKGRGETRICKIYDSPCLPEAEAMFAINADGVGDAKD"}},
  "data": [
    {"variants_of": "B1", "experiment": "co-IP (anti-Flag IP, IB RAD51, band quantification)", "conditions": "with RAD51, endogenous [human (endogenous in U2OS and HeLa)]; U2OS cells; 20 μM ETO, 0 h; read off a plot", "values": [
      {"variant": "chain 1 MKRPKLKKASKRMTCHKRYKIQKKVREHHRKLRKEAKKRGHKKPRKDPGVPNSAPFKEALLREAELRKQRLEELKQQQKLDRQKELEKKRKLETNPDIKPSNVEPMEKEFGLCKTENKAKSGKQNSKKLYCQELKKVIEASDVVLEVLDARDPLGCRCPQVEEAIVQSGQKKLVLILNKSDLVPKENLESWLNYLRKELPTVVFRASTKPKDKGKITKRVKAKKNAAPFRSEVCFGKEGLWKLLGGFQETCSKAIRVGVIGFPNVGKSSIINSLKQEQMCNVGVSMGLTRSMQVVPLDKQITIIDSPSFIVSPLNSSSALALRSPASIEVVKPMEAASAILSQADARQVVLKYTVPGYRNSLEFFTVLAQRRGMHQKGGIPNVEGAAKLLWSEWTGASLAYYCHPPTSWTPPPYFNESIVVDMKSGFNLEELEKNNAQSIRAIKGPHLANSILFQSSGLTNGIIEEKDIHEELPKRKERKQEEREDDKDSDQETVDEEVDENSSGMFAAEETGEALSEETTAGEQSTRSFILDKIIEEDDAYDFSTDYV", "note": "[chain 1 K196R]", "response (relative level)": 0.17}
    ]},
    {"variants_of": "B1", "experiment": "co-IP (anti-Flag IP, IB RAD51, band quantification)", "conditions": "with RAD51, endogenous [human (endogenous in U2OS and HeLa)]; U2OS cells; 20 μM ETO, 2 h; read off a plot", "values": [
      {"variant": "chain 1 MKRPKLKKASKRMTCHKRYKIQKKVREHHRKLRKEAKKRGHKKPRKDPGVPNSAPFKEALLREAELRKQRLEELKQQQKLDRQKELEKKRKLETNPDIKPSNVEPMEKEFGLCKTENKAKSGKQNSKKLYCQELKKVIEASDVVLEVLDARDPLGCRCPQVEEAIVQSGQKKLVLILNKSDLVPKENLESWLNYLRKELPTVVFRASTKPKDKGKITKRVKAKKNAAPFRSEVCFGKEGLWKLLGGFQETCSKAIRVGVIGFPNVGKSSIINSLKQEQMCNVGVSMGLTRSMQVVPLDKQITIIDSPSFIVSPLNSSSALALRSPASIEVVKPMEAASAILSQADARQVVLKYTVPGYRNSLEFFTVLAQRRGMHQKGGIPNVEGAAKLLWSEWTGASLAYYCHPPTSWTPPPYFNESIVVDMKSGFNLEELEKNNAQSIRAIKGPHLANSILFQSSGLTNGIIEEKDIHEELPKRKERKQEEREDDKDSDQETVDEEVDENSSGMFAAEETGEALSEETTAGEQSTRSFILDKIIEEDDAYDFSTDYV", "note": "[chain 1 K196R]", "response (relative level)": 0.52}
    ]},
    {"variants_of": "B1", "experiment": "co-IP (anti-Flag IP, IB RAD51, band quantification)", "conditions": "with RAD51, endogenous [human (endogenous in U2OS and HeLa)]; U2OS cells; 20 μM ETO, 8 h; read off a plot", "values": [
      {"variant": "chain 1 MKRPKLKKASKRMTCHKRYKIQKKVREHHRKLRKEAKKRGHKKPRKDPGVPNSAPFKEALLREAELRKQRLEELKQQQKLDRQKELEKKRKLETNPDIKPSNVEPMEKEFGLCKTENKAKSGKQNSKKLYCQELKKVIEASDVVLEVLDARDPLGCRCPQVEEAIVQSGQKKLVLILNKSDLVPKENLESWLNYLRKELPTVVFRASTKPKDKGKITKRVKAKKNAAPFRSEVCFGKEGLWKLLGGFQETCSKAIRVGVIGFPNVGKSSIINSLKQEQMCNVGVSMGLTRSMQVVPLDKQITIIDSPSFIVSPLNSSSALALRSPASIEVVKPMEAASAILSQADARQVVLKYTVPGYRNSLEFFTVLAQRRGMHQKGGIPNVEGAAKLLWSEWTGASLAYYCHPPTSWTPPPYFNESIVVDMKSGFNLEELEKNNAQSIRAIKGPHLANSILFQSSGLTNGIIEEKDIHEELPKRKERKQEEREDDKDSDQETVDEEVDENSSGMFAAEETGEALSEETTAGEQSTRSFILDKIIEEDDAYDFSTDYV", "note": "[chain 1 K196R]", "response (relative level)": 0.31}
    ]}
  ]
}
